For experiment [1], the target named is T1, human PD-1-Fc (extracellular region of human PD-1 fused to hinge-CH2-CH3 of human immunoglobulin gamma 1) (human, UniProt P01857 99-330 = IgG part).
T1 construct: domain: hinge-CH2-CH3; also called PD-1-Fc (human Ig gamma1); Human PD-1 linked to IgG1
Kind of experiment: BIACORE, PD-1-Fc immobilized. Background: Surface plasmon resonance follows binding to a sensor surface in real time, without labels.

For experiment [2], the target named is T2, human B7-4M (B7-4 membrane form) expressed on transfected COS or CHO cells (human, UniProt Q9NZQ7 19-290).
T2 construct: Cell-surface form on transiently transfected COS cells or on CHO transfectants; also called B7-4M (292); COS cells expressing B7-4M
T2 sequence (Q9NZQ7 19-290): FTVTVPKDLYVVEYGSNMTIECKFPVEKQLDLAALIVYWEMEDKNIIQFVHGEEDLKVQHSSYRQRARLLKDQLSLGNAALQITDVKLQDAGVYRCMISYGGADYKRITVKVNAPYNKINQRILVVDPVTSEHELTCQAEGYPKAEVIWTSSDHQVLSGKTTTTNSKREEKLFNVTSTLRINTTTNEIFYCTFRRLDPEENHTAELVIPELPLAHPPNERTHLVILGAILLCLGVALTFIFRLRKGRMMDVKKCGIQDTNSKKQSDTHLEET
The experiment in a line: flow cytometry on human B7-4 CHO cells. Background: A flow cytometer gives signals particle by particle.

Experiment [3] concerns the target T3, soluble human B7-4.Ig / B7-4-Fc fusion protein (Example 11) (human, UniProt Q9NZQ7 19-238).
T3 construct: not shown: Fc/Ig portion
The experiment in a line: BIACORE, PD-1-Fc immobilized, concentrated COS cell medium injected.

The target of experiment [4] is T2, human B7-4M (B7-4 membrane form) …. Kind of experiment: FACS on B7-4M-transfected COS cells. How it is done:
COS cells were transfected with either vector DNA (pcDNAI), or an expression plasmid containing the B7-4M cDNA. After 72 hours, the transfected COS cells were detached by incubation in PBS containing 0.5 mM EDTA for 30 min. at 37° C.
The ability of COS cells expressing B7-4M to bind to various T cell receptors and antibodies was tested. […] The ability of COS cells expressing B7-4M to bind to IgG and murine ICOS-his fusion protein was also tested.

T1 sequence (P01857 other isoform, or with tags, fused parts or gaps limits assumed): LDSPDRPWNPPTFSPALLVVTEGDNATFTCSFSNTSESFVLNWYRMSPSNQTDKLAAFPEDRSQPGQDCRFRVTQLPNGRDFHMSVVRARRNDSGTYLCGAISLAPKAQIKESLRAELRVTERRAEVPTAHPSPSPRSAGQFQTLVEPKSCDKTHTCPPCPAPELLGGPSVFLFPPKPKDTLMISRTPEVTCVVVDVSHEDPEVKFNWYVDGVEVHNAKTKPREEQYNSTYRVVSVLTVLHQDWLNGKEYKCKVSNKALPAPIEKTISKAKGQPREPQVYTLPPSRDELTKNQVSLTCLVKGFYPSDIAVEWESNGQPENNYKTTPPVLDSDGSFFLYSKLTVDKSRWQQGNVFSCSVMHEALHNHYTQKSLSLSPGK
T3 sequence (Q9NZQ7 19-238): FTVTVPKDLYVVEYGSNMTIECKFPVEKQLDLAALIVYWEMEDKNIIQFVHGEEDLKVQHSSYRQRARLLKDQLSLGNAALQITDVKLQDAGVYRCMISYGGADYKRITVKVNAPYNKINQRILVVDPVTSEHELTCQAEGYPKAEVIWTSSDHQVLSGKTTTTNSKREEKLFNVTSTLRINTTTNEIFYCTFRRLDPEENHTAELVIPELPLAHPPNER

B1: soluble form of human B7-1 (ligand)
chain: VIHVTKEVKEVATLSCGHNVSVEELAQTRIYWQKEKKMVLTMMSGDMNIWPEYKNRTIFDITNNLSIVILALRPSDEGTYECVVLKYEKDAFKREHLAEVTLSVKADFPTPSISDFEIPTSNIRRIICSTSGGFPEPHLSWLENGEELNAINTTVSQDPETELYAVSSKLDFNMTTNHSFMCLIKYGHLRVNQTFNWNTTKQEHFPDN
notes: also called soluble forms of B7-1
B1: the binding result in experiment [1] was “no binding”.

B2: murine PD-1-Fc / murine PD-1.Ig fusion protein (Fc fusion, UniProt Q02242 25-169, looked up)
chain: LEVPNGPWRSLTFYPAWLTVSEGANATFTCSLSNWSEDLMLNWNRLSPSNQTEKQAAFCNGLSQPVQDARFQIIQLPNRHDFHMNILDTRRNDSGIYLCGAISLHPKAKIEESPGAELVVTERILETSTRYPSPSPKPEGRFQGM
notes: also called mouse PD-1; not shown: Fc/Ig portion
Regarding B2, the binding result in experiment [2] and in experiment [3] was “binds” each time.

B3: murine ICOS-his fusion protein (receptor, UniProt Q9WVS0 21-144, looked up)
chain: EINGSADHRMFSFHNGGVQISCKYPETVQQLKMRLFREREVLCELTKTKGSGNAVSIKNPMLCLYHLSNNSVSFFLNNPDSSQGSYYFCSLSIFDPPPFQERNLSGGYLHIYESQLCCQLKLWL
notes: not shown: his tag
B3: in experiment [4], the binding result is listed as “no binding”.

B4: soluble form of human B7-2 (ligand)
chain: APLKIQAYFNETADLPCQFANSQNQSLSELVVFWQDQENLVLNEVYLGKEKFDSVHSKYMGRTSFDSDSWTLRLHNLQIKDKGLYQCIIHHKKPTGMIRIHQMNSELSVLANFSQPEIVPISNITENVYINLTCSSIHGYPEPKKMSVLLRTKNSTIEYDGVMQKSQDNVTELYDVSISLSVSFPDVTSNMTIFCILETDKTRLLSSPFSIELEDPQPPPDHIP
notes: also called soluble forms of B7-2
In the case of B4, the binding result in experiment [1] is “no binding”.

These data come from US20020160000A1 (Dana-Farber, published 2002).
